The values that follow come from the supplement of paper PMC11908140.

B1: library; numbered along this chain (parent)
chain: MRKPRAAVGSGHRKQAASQEGRQKHAKNNSQAKPSACDGLARQPEEVVLQASVSSYHLFRDVAEVTAFRGSLLSWYDQEKRDLPWRRRAEDEMDLDRRAYAVWVSEVMLQQTQVATVINYYTGWMQKWPTLQDLASASLEEVNQLWAGLGYYSRGRRLQEGARKVVEELGGHMPRTAETLQQLLPGVGRYTAGAIASIAFGQATGVVDGNVARVLCRVRAIGADPSSTLVSQQLWGLAQQLVDPARPGDFNQAAMELGATVCTPQRPLCSQCPVESLCRARQRVEQEQLLASGSLSGSPDVEECAPNTGQCHLCLPPSEPWDQTLGVVNFPRKASRKPPREESSATCVLEQPGALGAQILLVQRPNSGLLAGLWEFPSVTWEPSEQLQRKALLQELQRWAGPLPATHLRHLGEVVHTFSHIKLTYQVYGLALEGQTPVTTVPPGARWLTQEEFHTAAVSTAMKKVFRVYQGQQPGTCMGSKRSQVSSPCSRKKPRMGQQVLDNFFRSHISTDAHSLNSAAQ
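Also: cells sorted at 72 h after reporter transfection.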

Variants of B1 are the subject of this data set. As to the kind of experiment: 8OG:A repair function score (normalized; synonymous = 0, nonsense = -1) (normalized log-likelihood score); higher = more repair activity (WT-like). As to conditions: with 8OG:A DNA repair reporter (GFP) in HEK-293 MUTYH KO cells. The method, boiled down:
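After 72 h, viable mCherry+ cells were split into GFP+ (repair) and GFP− bins in three replicates per tile. These cells were MUTYH knockout HEK-293 cells holding lentiviral MUTYH cDNA NNN codon-scan libraries, kept in 10 pg/ml doxycycline and co-transfected with mCherry plus an 8OG:A GFP repair reporter. Sequencing of tile amplicons gave per-tile Rosace fitness scores, normalized into a repair function score anchored on synonymous and nonsense distributions. Synonymous medians were fixed at 0, nonsense at -1, and variants under 300 counts per million at the start were removed.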
Consider MRKPRAAVGSGHRKQAASQEGRQKHAKNNSQAKPSACDGLARQPEEVVLQASVSSYHLFRDVAEVTAFRGSLLSWYDQEKRDLPWRRRAEDEMDLDRRAYAVWVSEVMLQQTQVATVINYYTGWMQKWPTLQDLASASLEEVNQLWAGLGYYSRGRRLQEGARKVVEELGGHMPRTAETLQQLLPGVGRYTAGAIASIAFGQATGVVDGNVARVLCRVRAIGADPSSTLVSQQLWGLAQQLVDPARPGDFNQAAMELGATVCTPQRPLCSQCPVESLCRARQRVEQEQLLASGSLSGSPDVEECAPNTGQCHLCLPPSEPWDQTLGVVNFPRKASRKPPREESSATCVLEQPGALGAQILLVQRPNSGLLAGLWEFPSVTWEPSEQLQRKALLQELQRWAGPLPATHLRHLGEVVHTFSHIKLTYQVYGLALEGQTPVTTVPPGARWLTQEEFHTAAVSTAMKKVFRVYQGQQPGTCMGNKRSQVSSPCSRKKPRMGQQVLDNFFRSHISTDAHSLNSAAQ [S480N], for which the “8OG:A repair function score” value came to 0.0064.
Next, MRKPRAAVGSGHRKQAASQEGRQKHAKNNSQAKPSACDGLARQPEEVVLQASVSSYHLFRDVAEVTAFRGSLLSWYDQEKRDLPWRRRAEDEMDLDRRAYAVWVSEVMLQQTQVATVINYYTGWMQKWPTLQDLASASLEEVNQLWAGLGYYSRGRRLQEGARKVVEELGGHMPRTAETLQQLLPGVGRYTAGAIASIAFGQATGVVDGNVARVLCRVRAIGADPSSTLVSQQLWGLAQQLVDPARPGDFNQAAMELGATVCTPQRPLCSQCPVESLCRARQRVEQEQLLASGSLSGSPDVEECAPNTGQCHLCLPPSEPWDQTLGVVNFPRKASRKPPREESSATCVLEQPGALGAQILLVQRPNSGLLAGLWEFPSVTWEPSEQLQRKALLQELQRWAGPLPATHLRHLGEVVHTFSHIKLTYQVYGLALEGQTPVTTVPPGARWLTQEEFHTAAVSTAMKKVFRVYQGQQPGTCMGQKRSQVSSPCSRKKPRMGQQVLDNFFRSHISTDAHSLNSAAQ [S480Q]: -0.00583.
The same measure for MRKPRAAVGSGHRKQAASQEGRQKHAKNNSQAKPSACDGLARQPEEVVLQASVSSYHLFRDVAEVTAFRGSLLSWYDQEKRDLPWRRRAEDEMDLDRRAYAVWVSEVMLQQTQVATVINYYTGWMQKWPTLQDLASASLEEVNQLWAGLGYYSRGRRLQEGARKVVEELGGHMPRTAETLQQLLPGVGRYTAGAIASIAFGQATGVVDGNVARVLCRVRAIGADPSSTLVSQQLWGLAQQLVDPARPGDFNQAAMELGATVCTPQRPLCSQCPVESLCRARQRVEQEQLLASGSLSGSPDVEECAPNTGQCHLCLPPSEPWDQTLGVVNFPRKASRKPPREESSATCVLEQPGALGAQILLVQRPNSGLLAGLWEFPSVTWEPSEQLQRKALLQELQRWAGPLPATHLRHLGEVVHTFSHIKLTYQVYGLALEGQTPVTTVPPGARWLTQEEFHTAAVSTAMKKVFRVYQGQQPGTCMGMKRSQVSSPCSRKKPRMGQQVLDNFFRSHISTDAHSLNSAAQ [S480M]: 0.0231; for MRKPRAAVGSGHRKQAASQEGRQKHAKNNSQAKPSACDGLARQPEEVVLQASVSSYHLFRDVAEVTAFRGSLLSWYDQEKRDLPWRRRAEDEMDLDRRAYAVWVSEVMLQQTQVATVINYYTGWMQKWPTLQDLASASLEEVNQLWAGLGYYSRGRRLQEGARKVVEELGGHMPRTAETLQQLLPGVGRYTAGAIASIAFGQATGVVDGNVARVLCRVRAIGADPSSTLVSQQLWGLAQQLVDPARPGDFNQAAMELGATVCTPQRPLCSQCPVESLCRARQRVEQEQLLASGSLSGSPDVEECAPNTGQCHLCLPPSEPWDQTLGVVNFPRKASRKPPREESSATCVLEQPGALGAQILLVQRPNSGLLAGLWEFPSVTWEPSEQLQRKALLQELQRWAGPLPATHLRHLGEVVHTFSHIKLTYQVYGLALEGQTPVTTVPPGARWLTQEEFHTAAVSTAMKKVFRVYQGQQPGTCMGPKRSQVSSPCSRKKPRMGQQVLDNFFRSHISTDAHSLNSAAQ [S480P]: -0.000393.
Take MRKPRAAVGSGHRKQAASQEGRQKHAKNNSQAKPSACDGLARQPEEVVLQASVSSYHLFRDVAEVTAFRGSLLSWYDQEKRDLPWRRRAEDEMDLDRRAYAVWVSEVMLQQTQVATVINYYTGWMQKWPTLQDLASASLEEVNQLWAGLGYYSRGRRLQEGARKVVEELGGHMPRTAETLQQLLPGVGRYTAGAIASIAFGQATGVVDGNVARVLCRVRAIGADPSSTLVSQQLWGLAQQLVDPARPGDFNQAAMELGATVCTPQRPLCSQCPVESLCRARQRVEQEQLLASGSLSGSPDVEECAPNTGQCHLCLPPSEPWDQTLGVVNFPRKASRKPPREESSATCVLEQPGALGAQILLVQRPNSGLLAGLWEFPSVTWEPSEQLQRKALLQELQRWAGPLPATHLRHLGEVVHTFSHIKLTYQVYGLALEGQTPVTTVPPGARWLTQEEFHTAAVSTAMKKVFRVYQGQQPGTCMGKKRSQVSSPCSRKKPRMGQQVLDNFFRSHISTDAHSLNSAAQ [S480K]: the “8OG:A repair function score” value is 0.0154.
With MRKPRAAVGSGHRKQAASQEGRQKHAKNNSQAKPSACDGLARQPEEVVLQASVSSYHLFRDVAEVTAFRGSLLSWYDQEKRDLPWRRRAEDEMDLDRRAYAVWVSEVMLQQTQVATVINYYTGWMQKWPTLQDLASASLEEVNQLWAGLGYYSRGRRLQEGARKVVEELGGHMPRTAETLQQLLPGVGRYTAGAIASIAFGQATGVVDGNVARVLCRVRAIGADPSSTLVSQQLWGLAQQLVDPARPGDFNQAAMELGATVCTPQRPLCSQCPVESLCRARQRVEQEQLLASGSLSGSPDVEECAPNTGQCHLCLPPSEPWDQTLGVVNFPRKASRKPPREESSATCVLEQPGALGAQILLVQRPNSGLLAGLWEFPSVTWEPSEQLQRKALLQELQRWAGPLPATHLRHLGEVVHTFSHIKLTYQVYGLALEGQTPVTTVPPGARWLTQEEFHTAAVSTAMKKVFRVYQGQQPGTCMGLKRSQVSSPCSRKKPRMGQQVLDNFFRSHISTDAHSLNSAAQ [S480L], the “8OG:A repair function score” value was -0.0111.
